Legend:
Assay in all cases: peptide array, immobilised linear 15-mers
[1] = target: T1, ANGPTL4-derived peptide P38 (human)
T1 peptide: IQHLQSQFGLLDHKH
Protocol: (§1) The ability of selected antibodies of invention, namely MOR022765 and MOR022770, to bind to linear 15-amino-acid peptides derived from the N-terminal coiled coil domain of human ANGPTL4 was tested. The peptides were immobilized on a glass surface, and the ability of MOR022765 and MOR022770 to bind to the immobilized peptides was evaluated using experimental methods optimized for linear peptide epitope mapping at JPT Peptide Technologies (Berlin, Germany).

[2] = target: T2, ANGPTL4-derived peptide P23 (human)
T2 peptide: APESRVDPEVLHSLQ
Protocol: as §1

[3] = target: T3, ANGPTL4-derived peptide P39 (human)
T3 peptide: LQSQFGLLDHKHLDH
Protocol: as §1

[4] = target: T4, ANGPTL4-derived peptide P15 (human)
T4 construct: printed with S where human ANGPTL4 has C
T4 peptide: ALERRLSASGSASQG
Protocol: as §1

[5] = target: T5, ANGPTL4-derived peptide P22 (human)
T5 peptide: LPLAPESRVDPEVLH
Protocol: as §1

[6] = target: T6, ANGPTL4-derived peptide P12 (human)
T6 peptide: AERTRSQLSALERRL
Protocol: as §1

[7] = target: T7, ANGPTL4-derived peptide P7 (human)
T7 peptide: LAHGLLQLGQGLREH
Protocol: as §1

[8] = target: T8, ANGPTL4-derived peptide P41 (human)
T8 peptide: LLDHKHLDHEVAKPA
Protocol: as §1

[9] = target: T9, ANGPTL4-derived peptide P32 (human)
T9 peptide: LFHKVAQQQRHLEKQ
Protocol: as §1

[10] = target: T10, ANGPTL4-derived peptide P25 (human)
T10 peptide: DPEVLHSLQTQLKAQ
Protocol: as §1

[11] = target: T11, ANGPTL4-derived peptide P35 (human)
T11 peptide: RHLEKQHLRIQHLQS
Protocol: as §1

[12] = target: T12, ANGPTL4-derived peptide P1 (human)
T12 construct: linear 15-amino-acid peptide derived from the N-terminal coiled coil domain of human ANGPTL4
T12 peptide: GPVQSKSPRFASWDE
Protocol: as §1

[13] = target: T13, ANGPTL4-derived peptide P28 (human)
T13 peptide: TQLKAQNSRIQQLFH
Protocol: as §1

[14] = target: T14, ANGPTL4-derived peptide P27 (human)
T14 peptide: SLQTQLKAQNSRIQQ
Protocol: as §1

[15] = target: T15, ANGPTL4-derived peptide P30 (human)
T15 peptide: NSRIQQLFHKVAQQQ
Protocol: as §1

[16] = target: T16, ANGPTL4-derived peptide P31 (human)
T16 peptide: IQQLFHKVAQQQRHL
Protocol: as §1

[17] = target: T17, ANGPTL4-derived peptide P34 (human)
T17 peptide: QQQRHLEKQHLRIQH
Protocol: as §1

[18] = target: T18, ANGPTL4-derived peptide P18 (human)
T18 construct: printed with S where human ANGPTL4 has C
T18 peptide: GSASQGTEGSTDLPL
Protocol: as §1

[19] = target: T19, ANGPTL4-derived peptide P8 (human)
T19 peptide: GLLQLGQGLREHAER
Protocol: as §1

[20] = target: T20, ANGPTL4-derived peptide P37 (human)
T20 peptide: HLRIQHLQSQFGLLD
Protocol: as §1

[21] = target: T21, ANGPTL4-derived peptide P10 (human)
T21 peptide: QGLREHAERTRSQLS
Protocol: as §1

[22] = target: T22, ANGPTL4-derived peptide P19 (human)
T22 construct: printed with S where human ANGPTL4 has C
T22 peptide: SQGTEGSTDLPLAPE
Protocol: as §1

[23] = target: T23, ANGPTL4-derived peptide P3 (human)
T23 peptide: SPRFASWDEMNVLAH
Protocol: as §1

[24] = target: T24, ANGPTL4-derived peptide P42 (human)
T24 peptide: HKHLDHEVAKPARRK
Protocol: as §1

[25] = target: T25, ANGPTL4-derived peptide P40 (human)
T25 peptide: QFGLLDHKHLDHEVA
Protocol: as §1

[26] = target: T26, ANGPTL4-derived peptide P13 (human)
T26 construct: printed with S where human ANGPTL4 has C
T26 peptide: TRSQLSALERRLSAS
Protocol: as §1

[27] = target: T27, ANGPTL4-derived peptide P16 (human)
T27 construct: printed with S where human ANGPTL4 has C
T27 peptide: RRLSASGSASQGTEG
Protocol: as §1

[28] = target: T28, ANGPTL4-derived peptide P5 (human)
T28 peptide: WDEMNVLAHGLLQLG
Protocol: as §1

[29] = target: T29, ANGPTL4-derived peptide P2 (human)
T29 peptide: QSKSPRFASWDEMNV
Protocol: as §1

[30] = target: T30, ANGPTL4-derived peptide P36 (human)
T30 peptide: EKQHLRIQHLQSQFG
Protocol: as §1

[31] = target: T31, ANGPTL4-derived peptide P6 (human)
T31 peptide: MNVLAHGLLQLGQGL
Protocol: as §1

[32] = target: T32, ANGPTL4-derived peptide P29 (human)
T32 peptide: KAQNSRIQQLFHKVA
Protocol: as §1

- binding result [1]: no binding
- binding result [2]: no binding
- binding result [3]: no binding
- binding result [4]: no binding
- binding result [5]: no binding
- binding result [6]: no binding
- binding result [7]: no binding
- binding result [8]: no binding
- binding result [9]: no binding
- binding result [10]: no binding
- binding result [11]: no binding
- binding result [12]: no binding
- binding result [13]: no binding
- binding result [14]: no binding
- binding result [15]: no binding
- binding result [16]: no binding
- binding result [17]: no binding
- binding result [18]: no binding
- binding result [19]: no binding
- binding result [20]: no binding
- binding result [21]: no binding
- binding result [22]: no binding
- binding result [23]: no binding
- binding result [24]: no binding
- binding result [25]: no binding
- binding result [26]: no binding
- binding result [27]: no binding
- binding result [28]: no binding
- binding result [29]: no binding
- binding result [30]: no binding
- binding result [31]: no binding
- binding result [32]: no binding
B1: MOR022765 (antibody, human IgG1, lambda, V domains shown)
VH: EVQLVQSGAEVKKPGESLKISCKGSGYSFSTYWISWVRQMPGKGLEWMGIIDPSSSDTRYSPSFQGQVTISADKSISTAYLQWSSLKASDTAMYYCARVYGYVYMDVWGQGTLVTVSS
VL: SYELTQPLSVSVALGQTARITCSGDNLGKKYAYWYQQKPGQAPVLVIYDKTKRPSGIPERFSGSNSGNTATLTISRAQAGDEADYYCASYDWYSSSYVFGGGTKLTVLG
notes: human IgG1
